Laboratory results as given in patent publication US20040219615.

Target: RAP-2 (RIP-associated protein-2), full-length
Sequence (chain, as listed by the source): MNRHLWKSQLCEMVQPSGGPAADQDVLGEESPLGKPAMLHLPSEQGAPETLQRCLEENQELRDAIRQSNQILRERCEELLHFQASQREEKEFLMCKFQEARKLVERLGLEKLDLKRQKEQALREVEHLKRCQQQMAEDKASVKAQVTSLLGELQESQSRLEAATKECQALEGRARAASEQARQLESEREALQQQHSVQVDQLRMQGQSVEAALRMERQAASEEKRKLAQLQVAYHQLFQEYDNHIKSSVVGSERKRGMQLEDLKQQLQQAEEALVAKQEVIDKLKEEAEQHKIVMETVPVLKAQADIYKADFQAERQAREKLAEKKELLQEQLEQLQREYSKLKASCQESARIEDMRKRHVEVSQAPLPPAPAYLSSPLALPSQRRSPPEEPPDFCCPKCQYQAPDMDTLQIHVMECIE

Row | Protein | in vitro immunocomplex kinase assay | in vitro phosphorylation of the immunoprecipitated complex
1 | RIP (receptor interacting protein) (protein) MQPDMSLNVIKMKSSDFLESAELDSGGFGKVSLCFHRTQGLMIMKTVYKGPNCIEHNEALLEEAKMMNRLRHSRVVKLLGVIIEEGKYSLVMEYMEKGNLMHVLKAEMSTPLSVKGRIILEIIEGMCYLHGKGVIHKDLKPENILVDNDFHIKIADLGLASFKMWSKLNNEEHNELREVDGTAKKNGGTLYYMAPEHLNDVNAKPTEKSDVYSFAVVLWAIFANKEPYENAICEQQLIMCIKSGNRPDVDDITEYCPREIISLMKLCWEANPEARPTFPGIEEKFRPFYLSQLEESVEEDVKSLKKEYSNENAVVKRMQSLQLDCVAVPSSRSNSATEQPGSLHSSQGLGMGPVEESWFAPSLEHPQEENEPSLQSKLQDEANYHLYGSRMDRQTKQQPRQNVAYNREEERRRRVSHDPFAQQRPYENFQNTEGKGTAYSSAASHGNAVHQPSGLTSQPQVLYQNNGLYSSHGFGTRPLDPGTAGPRVWYRPIPSHMPSLHNIPVPETNYLGNTPTMPFSSLPPTDESIKYTIYNSTGIQIGAYNYMEIGGTSSSLLDSTNTNFKEEPAAKYQAIFDNTTSLTDKHLDPIRENLGKHWKNCARKLGFTQSQIDEIDHDYERDGLKEKVYQMLQKWVMREGIKGATVGKLAQALHQCSRIDLLSSLIYVSQN | over-expressed RIP did not phosphorylate RAP-2 | 
2 | IKK1 (protein) MERPPGLRPGAGGPWEMRERLGTGGFGNVCLYQHRELDLKIAIKSCRLELSTKNRERWCHEIQIMKKLNHANVVKACDVPEELNILIHDVPLLAMEYCSGGDLRKLLNKPENCCGLKESQILSLLSDIGSGIRYLHENKIIHRDLKPENIVLQDVGGKIIHKIIDLGYAKDVDQGSLCTSFVGTLQYLAPELFENKPYTATVDYWSFGTMVFECIAGYRPFLHHLQPFTWHEKIKKKDPKCIFACEEMSGEVRFSSHLPQPNSLCSLVVEPMENWLQLMLNWDPQQRGGPVDLTLKQPRCFVLMDHILNLKIVHILNMTSAKIISFLLPPDESLHSLQSRIERETGINTGSQELLSETGISLDPRKPASQCVLDGVRGCDSYMVYLFDKSKTVYEGPFASRSLSDCVNYIVQDSKIQLPIIQLRKVWAEAVHYVSGLKEDYSRLFQGQRAAMLSLLRYNANLTKMKNTLISASQQLKAKLEFFHKSIQLDLERYSEQMTYGISSEKMLKAWKEMEEKAIHYAEVGVIGYLEDQIMSLHAEIMELQKSPYGRRQGDLMESLEQRAIDLYKQLKHRPSDHSYSDSTEMVKIIVHTVQSQDRVLKELFGHLSKLLGCKQKIIDLLPKVEVALSNIKEADNTVMFMQGKRQKEIWHLLKIACTQSSARSLVGSSLEGAVTPQTSAWLPPTSAEHDHSLSCVVTPQDGETSAQMIEENLNCLGHLSTIIHEANEEQGNSMMNLDWSWLTE |  | RAP-2 becomes phosphorylated
